Reference: patent US20250152727A1

Molecular target: recombinant human TfR1 (human) (UniProt P02786)
Test: SPR (Carterra LSA), IgG captured on chip, TfR1 as analyte, 25 C

recombinant human TfR1 (human), sequence (P02786 89-760 limits assumed): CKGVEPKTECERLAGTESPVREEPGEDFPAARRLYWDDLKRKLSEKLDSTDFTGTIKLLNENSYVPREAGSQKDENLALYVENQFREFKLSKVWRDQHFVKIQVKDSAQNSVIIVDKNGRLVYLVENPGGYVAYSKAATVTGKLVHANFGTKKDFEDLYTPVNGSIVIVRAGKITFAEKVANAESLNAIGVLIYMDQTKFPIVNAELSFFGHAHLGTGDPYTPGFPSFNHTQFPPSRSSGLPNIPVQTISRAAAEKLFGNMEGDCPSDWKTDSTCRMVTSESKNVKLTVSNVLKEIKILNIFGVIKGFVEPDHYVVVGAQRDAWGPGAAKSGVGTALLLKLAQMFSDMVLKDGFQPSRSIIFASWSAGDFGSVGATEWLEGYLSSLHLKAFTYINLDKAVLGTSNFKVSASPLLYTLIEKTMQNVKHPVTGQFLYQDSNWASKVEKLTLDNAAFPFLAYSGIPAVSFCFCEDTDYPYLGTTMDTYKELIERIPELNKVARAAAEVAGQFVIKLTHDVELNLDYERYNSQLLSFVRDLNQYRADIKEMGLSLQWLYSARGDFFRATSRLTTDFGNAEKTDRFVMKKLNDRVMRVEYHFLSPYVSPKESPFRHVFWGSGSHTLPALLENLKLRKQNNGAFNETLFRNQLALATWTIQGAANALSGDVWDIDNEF

Kd: 0.536 nM
Substance: OKT9 mIgG (antibody)
